“Also recorded” adds a separate entry of the source.
Columns and labels:
HT-1080 cells [1] = assay: Localization of protein in stably-transfected overexpressing HT-1080 cells, immunoblotting and immunocytochemistry; type: cell-based, human; conditions: HT-1080 cells stably transfected with cDNA (FIG. 3, FIG. 4C, 4D)
Description: HT-1080 and HEK 293 cell lines were stably transfected to overexpress either wild-type human TFPI-2 or a mutant TFPI-2 construct lacking the carboxy-terminal tail (TFPI-2^1-188), and were maintained as described (Chand et al., Blood, 2004;103:1069-1077, Du et al., Arch. Biochem. Biophys:, 2003;417:96-104). An anti-human TFPI-2 murine monoclonal antibody designated as SK-9 was prepared as described (Du et al., Arch. Biochem. Biophys., 2003;417:96-104) and coupled to Affi-Gel 10 according to the manufacturer's recommendation. Recombinant human TFPI-2 was purified from HEK 293 serum-free conditioned media by a two-step chromatography procedure involving heparin-agarose (Sprecher et al., Proc. Natl. Acad. Sci. USA., 1994;91:3353-3357) and SK-9-AffiGel 10 affinity chromatography. In the latter procedure, heparin-agarose purified TFPI-2 was dialyzed against 50 mM Tris-HCl (pH 7.5) and applied to the SK-9-AffiGel 10 column equilibrated at room temperature with this buffer. After a wash step with 50 mM Tris-HCl (pH 7.5)/0.5 M NaCl, TFPI-2 was eluted with 0.1 M glycine (pH 2.5)/0.5 M NaCl into one-tenth volume of 1 M Tris-HCl (pH 8.8) to immediately neutralize the pH 2.5 glycine. […]

HT-1080 cells [2] = assay: Internalization of offered recombinant proteins in HT-1080 cells, immunoblotting of cytosolic and nuclear fractions; type: cell-based, human; conditions: 1 μM
Description: HT-1080 cells were grown in six-well plates under standard conditions. At confluence, the cells were treated with fresh medium containing either wild-type TFPI-2, TFPI-2^1-188, R24Q KD1, R24K KD1, or R24K KD1-CT as previously described (Kempaiah and Kisiel, Apoptosis, 2008;13:702-715). Briefly, duplicate wells were treated with purified proteins (1 μM final concentration) and incubated at either 37° C. or 4° C. for different time periods. Two wells were also treated with phosphate-buffered saline (PBS) at each temperature to serve as a control. At selected time points, the media was removed and the cells were rinsed once with PBS. The cells were then washed with 1 M NaCl/PBS for 30 minutes with gentle shaking to dissociate cell surface-bound proteins (Iino et al., Arterioscler. Thromb. Vasc. Biol., 1998;18:40-46). Finally, the cells were rinsed once with PBS, trypsinized and harvested for the preparation of cell lysates and cell fractions.
To prepare total cell lysates, 1-3×10^6 cells were lysed by sonication in 500 μl of lysis buffer containing of 125 mM Tris-HCl (pH 6.8), 2% SDS, 10% glycerol, 50 mM sodium phosphate, 1 mM phenylmethanesulphonylfluoride (PMSF) and protease inhibitor cocktail. The lysate was kept on ice for about 10 minutes, centrifuged for 15 minutes at 10,000×g at 4° C., and the supernatant recovered. To prepare nuclear and cytosolic fractions, approximately 2×10^6 cells were harvested and washed twice with cold PBS by centrifugation at 600×g in a Beckman J-6M/E centrifuge for seven minutes at 4° C. Five volumes of ice cold cytosolic buffer (10 mM Hepes pH 7.4, 0.33 M sucrose, 1 mM MgCl2, 0.1% Triton X-100 and protease inhibitor cocktail) was added to the cells and incubated on ice for 15 minutes. The cytosolic fraction was collected by centrifugation at 900×g for five minutes at 4° C. The resulting undissolved pellet was washed twice with cytosolic buffer followed by centrifugation at 900×g for five minutes at 4° C. Finally, the resulting pellet was resuspended in five volumes of ice cold buffer containing 0.45 M NaCl in 10 mM Hepes (pH 7.4) and protease inhibitor cocktail. The suspension was incubated on ice for an additional 15 minutes to dissolve the nucleus, and subsequently centrifuged at 18,000×g for five minutes at 4° C. The resulting supernatant was collected as the nuclear extract. All samples were boiled for three minutes in the presence of 5% SDS and stored at −20° C. until use.
The cell lysate, cytosol and nuclear fractions were subjected to SDS-PAGE using 4-20% polyacrylamide gradient gels. […] The membranes were then probed with specific antibodies dissolved in fresh blocking buffer. Immunoreactive proteins were identified using HRP-conjugated secondary antibodies and a chemiluminescent reagent system essentially as described (Kempaiah et al., Mol. Cancer, 2007;6:20). The integrity of the cytosolic and nuclear fractions was verified using anti-α-tubulin and anti-histone-H1 antibodies, respectively (Guo et al., Am. J Physiol. Cell Physiol., 2007;292:2095-2102).
The relative intensity of the Western blot bands were quantified using QUANTISCAN software (Biosoft, Cambridge, U.K.). The intensities are reported in arbitrary units (A.U.) obtained by subtracting the background value from the corresponding band's mean value.

human tumor cell lines = conditions: several tumor cell lines, exogenously offered; Kempaiah and Kisiel 2008; cited from earlier work
importin-α = assay: Co-immunoprecipitation assay of TFPI-2 with importin-α from HT-1080 cell lysates; type: binding, human; conditions: lysates of TFPI-2-treated (1 μM) HT-1080 cells or HT-1080 cells overexpressing TFPI-2; SK-9 or anti-importin-α antibody (FIG. 5)
Source text: To identify the adapter protein(s) involved in transporting TFPI-2 to the nucleus, we performed co-immunoprecipitation studies using the PROFOUND co-immunoprecipitation kit and cell lysates derived from either vehicle-treated HT-1080 cells, TFPI-2-treated HT-1080 cells or HT-1080 cells overexpressing TFPI-2. Approximately 4.5×10^6 cells from each system were washed twice with PBS, and the lysates prepared in the presence of proteinase inhibitors using the mammalian protein extraction reagent provided in the kit. Complexes of importin-α and TFPI-2 were removed from the lysate by co-immunoprecipitation according to the manufacturer's instructions. In this procedure, antibodies specific for either importin-α or TFPI-2 (SK-9) were covalently linked at room temperature for 16 hours to an amine-reactive gel in coupling buffer (8 mM sodium phosphate/2 mM potassium phosphate/10 mM KCl/140 mM NaCl [pH 7.4]). Cell lysates from the above preparations were added to the antibody-coupled columns and incubated at 4° C. for 18 hours with gentle end-over-end mixing. The columns were then washed several times with coupling buffer containing 0.5 M NaCl to remove non-specifically bound proteins, and finally eluted with the elution buffer provided in the kit. […]

B1: TFPI-2: Human tissue factor pathway inhibitor-2, a 32 kDa Kunitz-type serine proteinase inhibitor (SEQ ID NO:1), recombinant from HEK 293 (protein, listed as Homo sapiens)
chain: DAAQEPTGNNAEICLLPLDYGPCRALLLRYYYDRYTQSCRQFLYGGCEGNANNFYTWEACDDACWRIEKVPKVCRLQVSVDDQCEGSTEKYFFNLSSMTCEKFFSGGCHRNRIENRFPDEATCMGFCAPKKIPSFCYSPKDEGLCSANVTRYYFNPRYRTCDAFTYTGCGGNDNNFVSREDCKRACAKALKKKKKMPKLRFASRIRKIRKKQF
modifications: tissue factor pathway inhibitor-2
HT-1080 cells [1]
  Localization of overexpressed protein: cytosolic and nuclear localization of TFPI-2
HT-1080 cells [2]; 4° C. versus 37° C. (FIG. 1C)
  Amount localized in the nucleus in 60 minutes at 4° C. (temperature dependence): roughly equivalent to that observed in five minutes at 37 °C
HT-1080 cells [2]; 24-72 hours incubation
  Time of maximal cytosolic and nuclear localization: 48 h
HT-1080 cells [2]; 24-72 hours incubation, immunoblot (FIG. 1)
  Intracellular distribution of internalized protein: internalized and distributed in both the cytosolic and the nuclear fractions
HT-1080 cells [2]; 37° C., within the first 15 minutes of offering (FIG. 1A)
  Rate of internalization and translocation to the nucleus: rapidly internalized by these cells and translocated to the nucleus within minutes of offering; also recorded: rapidly internalized by HT-1080 cells and efficiently translocated to the nucleus
Human tumor cell lines
  Induction of caspase-mediated apoptosis: induce caspase-mediated apoptosis
importin-α
  Complex formation with importin-α (co-immunoprecipitation): complexes of TFPI-2 and importin-α were immunoprecipitated by each antibody; also recorded: formed complexes with importin-α
